Laboratory results from US20260193366A1 (APOGEE THERAPEUTICS, published 2026).
Where a chain is given by its changes, count along the chain named.

T1: human IL-4Rα (human, UniProt P24394 26-232)
T1 construct: also called Hu IL-4Rα; hIL-4Rα
T1 sequence: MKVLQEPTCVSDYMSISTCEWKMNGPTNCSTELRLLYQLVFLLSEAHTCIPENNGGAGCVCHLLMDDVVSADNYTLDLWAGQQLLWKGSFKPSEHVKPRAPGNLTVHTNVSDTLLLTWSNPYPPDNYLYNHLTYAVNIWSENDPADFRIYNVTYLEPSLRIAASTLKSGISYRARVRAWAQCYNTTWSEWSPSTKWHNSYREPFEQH

T2: cynomolgus monkey IL-4Rα (cynomolgus monkey, UniProt P24394 26-231 (human entry), limits assumed)
T2 construct: also called Cyno IL-4Rα; cyIL-4Rα
T2 chain: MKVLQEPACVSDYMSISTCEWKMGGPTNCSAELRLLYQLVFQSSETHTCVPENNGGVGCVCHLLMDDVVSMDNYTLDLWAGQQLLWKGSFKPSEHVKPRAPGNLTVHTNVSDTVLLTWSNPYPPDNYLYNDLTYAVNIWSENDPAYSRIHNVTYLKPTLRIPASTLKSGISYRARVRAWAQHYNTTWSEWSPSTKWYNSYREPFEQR

T3: hIL-4Rα on cells (human, UniProt P24394 26-825)
T3 sequence: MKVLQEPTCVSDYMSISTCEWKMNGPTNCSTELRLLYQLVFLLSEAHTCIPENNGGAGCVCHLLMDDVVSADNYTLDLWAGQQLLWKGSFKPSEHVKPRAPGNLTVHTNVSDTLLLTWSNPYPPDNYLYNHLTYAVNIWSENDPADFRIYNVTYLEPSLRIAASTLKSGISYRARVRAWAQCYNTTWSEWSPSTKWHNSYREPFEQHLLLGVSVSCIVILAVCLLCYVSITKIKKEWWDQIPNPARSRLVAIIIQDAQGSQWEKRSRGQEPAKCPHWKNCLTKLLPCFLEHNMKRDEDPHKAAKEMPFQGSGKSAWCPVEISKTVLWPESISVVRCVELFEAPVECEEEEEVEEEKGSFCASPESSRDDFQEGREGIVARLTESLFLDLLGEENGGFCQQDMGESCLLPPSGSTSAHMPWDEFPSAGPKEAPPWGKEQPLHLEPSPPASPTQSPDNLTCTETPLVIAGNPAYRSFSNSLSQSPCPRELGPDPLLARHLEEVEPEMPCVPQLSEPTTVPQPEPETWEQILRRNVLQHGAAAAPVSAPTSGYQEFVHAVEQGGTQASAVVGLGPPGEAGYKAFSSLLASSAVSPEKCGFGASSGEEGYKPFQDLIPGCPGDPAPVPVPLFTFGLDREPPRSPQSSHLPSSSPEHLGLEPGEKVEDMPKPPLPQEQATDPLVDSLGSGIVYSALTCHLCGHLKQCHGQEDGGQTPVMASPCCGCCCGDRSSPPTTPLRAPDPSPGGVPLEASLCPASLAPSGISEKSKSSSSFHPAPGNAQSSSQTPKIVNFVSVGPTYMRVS

B1: Construct 17 (mAb425) (antibody, IgG4, V domains shown)
VH: EVQLVESGGGLEQPGGSLRLSCAGSGFTFRDFAMTWVRQAPGKGLEWVSSISGSGSSTYYADSVKGRFTISRDNSKNTLYLQMNSLRAEDTAVYYCAKDRLSVTVRPRYYGLDVWGQGTTVTVSS
VL: DIVMTQSPLSLPVTPGEPASISCTASQSLLYSIGYNYVDWYLQKSGQSPQLLIYLGSKRASGVPDRFSGSGSGTDFTLKISRVEAEDVGFYYCMQAYNSPYTFGQGTKLEIK
notes: VH/VL only
B2: Construct 26 (mAb434) (antibody, IgG4, V domains shown)
VH: B1 VH with S54G, S56G, V103I, T104A
VL: B1 VL with S57N, A96S, Y97L, N98T
notes: VH/VL only
B3: Construct 19 (mAb427) (antibody, IgG4, V domains shown)
VH: B1 VH with D31T, F32Y, S56D, S57N, L101V, V103I, V105I
VL: B1 VL with A25S, S57N, Y97L, N98G
notes: VH/VL only
B4: Construct 18 (mAb426) (antibody, IgG4, V domains shown)
VH: B1 VH with S56D, S57N, V103K, V105I
VL: B1 VL with A25S, Y35K, S57N, A96S, Y97L, N98T
notes: VH/VL only
B5: Construct 23 (mAb431) (antibody, V domains shown)
VH: B1 VH with S54G, S56G
VL: B1 VL with T24R, A25S, L29V, Y35K, K58Q, S61T, A96S, Y97L, N98T
notes: VH/VL only
B6: Construct 20 (mAb428) (antibody, IgG4, V domains shown)
VH: B1 VH with S56D, S57N, V103I
VL: B1 VL with A25S, S57N, A96S, Y97L, N98Q, S99T, T102V
notes: VH/VL only
B7: Construct 21 (mAb429) (antibody, IgG4, V domains shown)
VH: B1 VH with D31T, F32Y, S56G, S57N, T58I, L101V, V103I, T104Y
VL: B1 VL with A96S, Y97L, N98T
notes: VH/VL only
B8: Construct 25 (mAb433) (antibody, IgG4, V domains shown)
VH: B1 VH with S56D, S57N, T58I, V103K, V105I
VL: B1 VL with V38L, L55E, S57N, A96S, Y97L, N98T
notes: VH/VL only
B9: Construct 22 (mAb430) (antibody, IgG4, V domains shown)
VH: B1 VH
VL: B1 VL with T24R, A25S, L29V, S57N, A96S, Y97L, N98T
notes: VH/VL only

Legend:
human IL-4Rα = target: T1, human IL-4Rα; assay: SPR, Carterra LSA;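 note: antibodies captured on an anti-human Fc sensor chip, antigen injected at several concentrations, association and dissociation rates fitted with a 1:1 Langmuir model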
cynomolgus monkey IL-4Rα = target: T2, cynomolgus monkey IL-4Rα; assay: SPR, Carterra LSA;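 note: antibodies captured on an anti-human Fc sensor chip, antigen injected at several concentrations, association and dissociation rates fitted with a 1:1 Langmuir model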
hIL-4Rα on cells [1] = target: T3, hIL-4Rα on cells; assay: cell-based or functional assay
hIL-4Rα on cells [2] = target: T3, hIL-4Rα on cells; assay: cell-based or functional assay; remark: listed apart in the source
hIL-4Rα on cells [3] = target: T3, hIL-4Rα on cells; assay: cell-based or functional assay; remark: listed apart in the source
hIL-4Rα on cells [4] = target: T3, hIL-4Rα on cells; assay: FACS on HEK293 cells, competitor biotin-hIL-4;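 note: HEK293 cells stably co-expressing hIL-13Rα and hIL-4Rα, stained for 1 h at 4 °C, read-out as mean fluorescence intensity by flow cytometry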
Protocol: Briefly, HEK293 previously transduced to stably express both hIL-13Rα and hIL-4Rα were cultured and harvested. Cells were seeded at 200,000 cells in 100 uL per well. Cells were washed and the supernatant discarded. […] The cells were stained in this mixture at 4° C. for 1 hour. […] Cells were incubated 4° C. for 1 hour, protected from light. Cells were then washed and the MFI of cells in each well were recorded by FACS using a BD FACSCanto II. Subsequent data were analyzed using GraphPad Prism.

hIL-4Rα on cells [5] = target: T3, hIL-4Rα on cells; assay: FACS on HEK293 cells, competitor biotin-hIL-13;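 note: stably transduced cells co-expressing both receptor chains, stained cold, with cell-bound signal read as mean fluorescence intensity by flow cytometry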

KD Relative to Dupilumab (human IL-4Rα)	Kd (human IL-4Rα)	KD Relative to Dupilumab (cynomolgus monkey IL-4Rα)	Kd (cynomolgus monkey IL-4Rα)	Relative Inhibition of IL-4 induced pSTAT6 IC50 (hIL-4Rα on cells [1])	Relative Inhibition of IL-13 induced pSTAT6 IC50 (hIL-4Rα on cells [1])	Relative Inhibition of IL-4 induced TARC IC50 (hIL-4Rα on cells [2])	Relative Inhibition of IL-13 induced TARC IC50 (hIL-4Rα on cells [2])	Relative Inhibition of IL-4 induced TF-1 Proliferation IC50 (hIL-4Rα on cells [3])	Relative Inhibition of IL-13 induced TF-1 Proliferation IC50 (hIL-4Rα on cells [3])	Relative Blockade of IL-4 Binding IC50 (hIL-4Rα on cells [4])	Relative Blockade of IL-13 Binding IC50 (hIL-4Rα on cells [5])	Binder
1.49	0.0169 nM	0.09	58.3 nM	0.876 relative to dupilumab	0.863 relative to dupilumab	0.491 relative to dupilumab	0.789 relative to dupilumab	0.729 relative to dupilumab	0.844 relative to dupilumab	1.11 relative to dupilumab	1.17 relative to dupilumab	B1
0.78	0.00883 nM	0.26	166 nM	0.661 relative to dupilumab	0.627 relative to dupilumab	0.763 relative to dupilumab	1.73 relative to dupilumab	0.7 relative to dupilumab	0.83 relative to dupilumab	0.763 relative to dupilumab	0.486 relative to dupilumab	B2
3.19	0.036 nM	0.08	50.2 nM	0.844 relative to dupilumab	0.885 relative to dupilumab	0.756 relative to dupilumab	0.834 relative to dupilumab	0.835 relative to dupilumab	0.55 relative to dupilumab	0.867 relative to dupilumab	1.02 relative to dupilumab	B3
2.65	0.03 nM	0.09	58 nM	0.517 relative to dupilumab	0.446 relative to dupilumab	0.407 relative to dupilumab	0.447 relative to dupilumab	0.626 relative to dupilumab	0.606 relative to dupilumab	0.85 relative to dupilumab	0.813 relative to dupilumab	B4
0.67	0.00762 nM	0.1	63.3 nM	0.483 relative to dupilumab	0.475 relative to dupilumab	0.557 relative to dupilumab	0.579 relative to dupilumab	0.823 relative to dupilumab	0.732 relative to dupilumab	1.07 relative to dupilumab	0.793 relative to dupilumab	B5
1.41	0.0159 nM	0.13	80.8 nM	1.28 relative to dupilumab	1.86 relative to dupilumab	3.63 relative to dupilumab	1.83 relative to dupilumab	1.12 relative to dupilumab	1.38 relative to dupilumab	1.44 relative to dupilumab	1.14 relative to dupilumab	B6
0.76	0.00857 nM	0.02	14.4 nM	0.305 relative to dupilumab	0.447 relative to dupilumab	0.342 relative to dupilumab	0.313 relative to dupilumab	0.509 relative to dupilumab	0.498 relative to dupilumab	0.749 relative to dupilumab	0.706 relative to dupilumab	B7
0.94	0.0107 nM	1.12	703 nM	1.33 relative to dupilumab	1.82 relative to dupilumab	1.17 relative to dupilumab	1.78 relative to dupilumab	2.04 relative to dupilumab	1.31 relative to dupilumab	1.36 relative to dupilumab	1.09 relative to dupilumab	B8
0.77	0.00866 nM	0.05	28.7 nM	0.749 relative to dupilumab	0.612 relative to dupilumab	0.488 relative to dupilumab	0.535 relative to dupilumab	0.746 relative to dupilumab	0.495 relative to dupilumab	0.829 relative to dupilumab	0.785 relative to dupilumab	B9
